From PMC8044208 (2021) come the findings set out here.

To fix the notation:
B2: human MLKL pseudokinase domain, as used for the KD measurements (domain or fragment)
chain: QEQIKEIKKEQLSGSPWILLRENEVSTLYKGEYHRAPVAIKVFKKLQAGSIAIVRQTFNKEIKTMKKFESPNILRIFGICIDETVTPPQFSIVMEYCELGTLRELLDREKDLTLGKRMVLVLGAARGLYRLHHSEAPELHGKIRSSNFLVTQGYQVKLAGFELRKTQTSMSLGTTREKTDRVKSTAYLSPQELEDVFYQYDVKSEIYSFGIVLWEIATGDIPFQGCNSEKIRKLVAVKRQQEPLGEDCPSELREIIDECRAHDPSVRPSVDEILKKLSTFSK

The target in test [1] is B2. As to the kind of experiment: previously reported.
Another test concerns the target Mb(MLKL_26). As to the kind of experiment: FACS; yeast display.

B1: Mb(MLKL_32) (protein)
chain: VSSVPTKLEVVAATPTSLLISWDAPAVTVDLYIITYGETGGNSPVQTFEVPGSKSTATISGLSPGVDYTITVYAYSFMYHDYYYPEWSPISINYRT
Broadly, the Kd is a measure of binding affinity in units of concentration. The low end stands for a tighter complex, the high end for a looser complex. Take B1: in test [1], the Kd was found to be 37.1 nM. B2 yielded a Kd in the test with Mb(MLKL_26) of 176 nM.
